The target of the experiment is enterovirus D68 clade B2 virus (enterovirus D68). Put plainly: cell-based or functional assay.

Results on one molecule are retold here after US20240269256A1 (HDT BIO, published 2024).

B1: AAA_G12 anti-EV-D68 VHH (recombinant VHH G12) (VHH)
VHH: QVQLVESGGGLVQPGGSLRLSCLASGITFTVYRMAWYRQAPGRQRDLVAEVAPGGGTVAANSVKGRFTISRDSAKNTVDLQMNDLKPDDTAVYYCYARNLFTSGEYWGQGTQVTVSS
With B1, the “50% inhibitory concentrations (IC50), neutralization by real time cell analysis (RTCA) assay” value is ~1 nM.
